Our source for the protein stability index values is the supplement of paper PMC10567573.

The data set in a line: protein stability index of a GFP-peptide fusion (GPS, HEK-293T) (PSI 1-6); higher = more stable. Conditions: c terminus: native.
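Further: lentivirally expressed fusion library, cells FACS-sorted into six equal-sized GFP/DsRed ratio bins, PSI computed from sequencing read fractions per bin weighted by bin number.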

For the protein LPALFTDLYSQEITAEEAREALPE [SNF8 addE], for the setting “parent: NP_009172.2”, the protein stability index was found to be 5.12.

Take HSLRAVSTDPPHHDHHDEFCLMPE [BEX2 addE]: the protein stability index (parent: NP_116010.1) worked out at 4.74.

CQPISFSGFGAEDDDLGGLGLGPE [POLD2 addE]: under “parent: NP_006221.1”, the protein stability index was found to be 2.57.

As to EQRNSRWNTVLRAVKAKTHHLEPE [TRPA1 addE], the protein stability index (parent: NP_015628.1) was found to be 4.66.

Regarding DGWIRVSSDNVADLHEKYSGSTPE [PSMB5 addE], the protein stability index (parent: NP_002788.1) stood at 4.
